Source: US20060134087A1, “ITI-D1 Kunitz domain mutants as hNE inhibitors” (Dyax Corp., priority 1988, published 2006)
Values joined by “and” are separate entries in the source; they are usually repeats but may differ in a detail not shown here. Equal values may be shown once.

Molecular target: T1, agarose-immobilized hNE beads (Homo sapiens, UniProt P08246)
T1 sequence (P08246 30-267): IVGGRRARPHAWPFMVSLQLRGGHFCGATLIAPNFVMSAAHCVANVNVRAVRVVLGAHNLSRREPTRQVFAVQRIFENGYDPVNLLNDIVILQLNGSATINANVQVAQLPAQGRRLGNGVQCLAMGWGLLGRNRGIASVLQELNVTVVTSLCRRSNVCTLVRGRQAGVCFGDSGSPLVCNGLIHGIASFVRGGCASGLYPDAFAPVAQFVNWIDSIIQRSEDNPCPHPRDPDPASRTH
Experiment: pH fractionation of display phage on agarose-immobilized hNE beads
Format: binding
Design: Fraction of Input recovered at pH7.0: scale not given here
Conditions: for Recovery Total: total fraction of input; for reduction of display phage binding to hNE-beads / effect of change on binding of display phage to hNE-beads: relative to parental MA-BITI-E7-141; for fraction of input: abbreviated fractionation
From the text: For the purpose of simultaneously assessing the affinity of a large number of different BPTI and ITI-D1 muteins, DNA sequences encoding the BPTI or ITI-D1 was incorporated into the genome of the bacteriophage M13. […] Alterations in the KuDom amino acid sequence were introduced. Each pure population of phage displaying a particular KuDom was characterized with regard to its interactions with immobilized hNE or hCG. Based on comparison to the pH elution profiles of phage displaying other KuDoms of known affinities for the particular protease, mutant KuDoms having high affinity for the target proteases were identified. Subsequently, the sequences of these mutant KuDoms were determined (typically by sequencing the corresponding DNA sequence).
To test if phage displaying the ITI-D1::III fusion protein interact strongly with the proteases human neutrophil elastase (hNE), aliquots of display phage were incubated with agarose-immobilized hNE beads (“hNE beads”). The beads were washed and bound phage eluted by pH fractionation as described in U.S. Pat. No. 5,223,409. The pHs used in the step gradient were 7.0, 6.0, 5.5, 5.0, 4.5, 4.0, 3.5, 3.0, 2.5, and 2.0. Following elution and neutralization, the various input, wash, and pH elution fractions were titered. Phage displaying ITI-D1 were compared to phage that display EpiNE-7.
To test if ITI-D1E7-display phage bind hNE beads, pH elution profiles were measured. Aliquots of EpiNE-7, MA-ITI-D1, and MA-ITI-D1E7 display phage were incubated with hNE beads for three hours at room temperature (RT). The beads were washed and phage were eluted as described in U.S. Pat. No. 5,223,409, except that only three pH elutions were performed. […] The pH elution profile of EpiNE-7 display phage is as described. MA-ITI-D1E7 phage show a broad elution maximum around pH 5. The total fraction of MA-ITI-D1E7 phage obtained on pH elution from hNE beads was about 40-fold less than that obtained using EpiNE-7 display phage.
We characterized the binding properties to hNE-beads of MA-BITI and MA-BITI-E7 display phage using the extended pH fractionation procedure described in U.S. Pat. No. 5,223,409.
The binding capacity of hNE-beads for display phage varies among preparations of beads and with age for each individual preparation of beads. Thus, it is difficult to directly compare absolute yields of phage from elutions performed at different times. For example, the fraction of MA-EpiNE7 display phage recovered from hNE-beads varies two-fold among the experiments shown in Tables 14, 16, and 17. However, the shapes of the pH elution profiles are similar. It is possible to correct somewhat for variations in binding capacity of hNE-beads by normalizing display phage yields to the total yield of MA-EpiNE7 phage recovered from the beads in a concurrent elution. When the data shown in Tables 14, 16, and 17 are so normalized, the recoveries of display phage, relative to recovered MA-EpiNE7, are shown in Table 3.
ITI-D1 derivative BITI-E7-1222 is BITI-E7 with the alteration A11T. ITI-D1 derivative BITI-E7-141 is BITI-E7 with the alterations E31Q and Q34V; phage that display the presence of these proteins are MA-BITI-E7-1222 and MA-BITI-E7-141. We determined the binding properties to hNE-beads of MA-BITI-E7-1222 and MA-BITI-E7-141 display phage using the extended pH fractionation protocol described previously. The results are in Tables 18 (for MA-BITI-E7 and MA-BITI-E7-1222) and 19 (for MA-EpiNE7 and MA-BITI-E7-141). The pH elution profiles for the MA-BITI-E7 and MA-BITI-E7-1222 phage are almost identical.
Total pfu applied to the beads are in column two. The fractions of this input pfu recovered in each pH fraction of the abbreviated pH elution protocol (pH 7.0, pH 3.5, and pH 2.0) are in the next three columns. […]

[1] = AE abbreviated pH elution protocol
[2] = EE extended pH elution protocol
[3] = EE, sum of pH 3.0, 2.5, 2.0 samples
[4] = EE, sum of pH 6.0 to pH 3.5 samples
[5] = SUM of all pH elution fractions
[6] = extended protocol, final TBS-TWEEN wash
[7] = extended protocol, pH 3.0 fraction
[8] = extended protocol, pH 4.0 fraction
[9] = extended protocol, pH 4.5 fraction
[10] = extended protocol, pH 5.0 fraction
[11] = extended protocol, pH 5.5 fraction
[12] = extended protocol, pH 7.0 fraction

BITI-E7-141: BITI-E7 with the alterations E31Q and Q34V; SEQ ID NO 017 (RPDFCQLGYSAGPCVAMFPRYFYNGTSMACQTFVYGGCMGNGNNFVTEKDCLQTCRGA; BITI-E7-141)
fold greater affinity for hNE than BITI-E7: approximately 100 fold
Fraction of Input recovered at pH2.0 [1]: 5.4 ×10^−4
Fraction of Input recovered at pH3.5 [1]: 18.0 ×10^−4
Fraction of Input recovered at pH7.0 [1]: 2.2
Recovery Total (AE): 26.0 ×10^−4
Fraction of Input recovered at pH7.0 [2]: 2.1
Fraction of Input recovered at pH2.0 [3]: 3.2 ×10^−4
Fraction of Input recovered at pH3.5 [4]: 21. ×10^−4
Recovery Total (EE): 26.0 ×10^−4
Fraction of Input bound (range of the affinity class): >0.1%
pH Elution Maximum (range of the affinity class): ≦4.0 pH

BITI-E7: ITI-D1E7 with K1R, E2P and S4F; SEQ ID NO 142 (RPDFCQLGYSAGPCVAMFPRYFYNGTSMACETFQYGGCMGNGNNFVTEKDCLQTCRGA; BITI-E7)
fold greater affinity for hNE than ITI-D1E7: ten-fold

MUTP1: ITI-D1 derivative asserting I15, G16, S19; SEQ ID NO 024 (RPDFCQLGYSAGPCIGMFSRYFYNGTSMACETFQYGGCMGNGNNFVTEKDCLQTCRGA; MUTP1)
Fraction of Input recovered at pH2.0 [1]: 1.2 ×10^−4
Fraction of Input recovered at pH3.5 [1]: 9.2 ×10^−4
Fraction of Input recovered at pH7.0 [1]: 1.8
Recovery Total (AE): 12.0 ×10^−4

AMINO2: ITI-D1 derivative carrying K1-S4, SEQ ID NO 023 (KPDSCQLGYSAGPCVAMFPRYFYNGTSMACETFQYGGCMGNGNNFVTEKDCLQTCRGA; AMINO2)
Fraction of Input recovered at pH2.0 [1]: 0.45 ×10^−4
Fraction of Input recovered at pH3.5 [1]: 2.1 ×10^−4
Fraction of Input recovered at pH7.0 [1]: 0.57
Recovery Total (AE): 3.1 ×10^−4
reduction of display phage binding to hNE-beads: at least ten fold

AMINO1: ITI-D1 derivative carrying K1-E2, SEQ ID NO 022 (KEDFCQLGYSAGPCVAMFPRYFYNGTSMACETFQYGGCMGNGNNFVTEKDCLQTCRGA; AMINO1)
Fraction of Input recovered at pH7.0 [2]: 0.24
Fraction of Input recovered at pH2.0 [3]: 0.35 ×10^−4
Fraction of Input recovered at pH3.5 [4]: 2.3 ×10^−4
Recovery Total (EE): 2.9 ×10^−4
reduction of display phage binding to hNE-beads: at least ten fold

EpiNE7: BPTI-derived Kunitz domain, SEQ ID NO 009; in Tables 14-16 the phage displaying it
fold greater affinity for hNE than ITI-D1E7: roughly 1000 fold
Fraction of Input recovered at pH7.0 [2]: 0.44
Fraction of Input recovered at pH2.0 [3]: 2.2 ×10^−4
Fraction of Input recovered at pH3.5 [4]: 6.4 ×10^−4
Recovery Total (EE): 9.0 ×10^−4
pfu [5]: 6.4 · 10^6 pfu and 7.6 · 10^6 pfu
pfu/INPUT (fraction of input) [5]: 3 · 10^−3 and 4.1 · 10^−3
fraction of input [5]: 4.3 · 10^−3
fraction of input (Wash): 6 · 10^−5
fraction of input (pH 2.0): 1 · 10^−3
fraction of input (pH 3.5): 3 · 10^−3
fraction of input (pH 7.0): 3 · 10^−4
total fraction of input phage eluted from hNE beads (all pH elution fractions): About 0.3%
pH Elution Maximum (display phage on hNE beads): ~4.0 pH
pfu [6]: 3.8 · 10^5 pfu
pfu/INPUT (fraction of input) [6]: 1.2 · 10^−4
pfu (extended protocol, pH 2.0 fraction): 3.0 · 10^5 pfu and 2.9 · 10^5 pfu
pfu (extended protocol, pH 2.5 fraction): 1.6 · 10^5 pfu and 2.8 · 10^5 pfu
pfu [7]: 6.6 · 10^5 pfu and 3.8 · 10^5 pfu
pfu/INPUT (fraction of input) [7]: 2.0 · 10^−4 and 2.1 · 10^−4
pfu [8]: 1.6 · 10^6 pfu and 1.7 · 10^6 pfu
pfu/INPUT (fraction of input) [8]: 4.8 · 10^−4 and 9.4 · 10^−4
pfu [9]: 1.2 · 10^6 pfu and 1.1 · 10^6 pfu
pfu/INPUT (fraction of input) [9]: 3.5 · 10^−4 and 6.1 · 10^−4
pfu [10]: 9.5 · 10^5 pfu and 8.4 · 10^5 pfu
pfu/INPUT (fraction of input) [10]: 2.9 · 10^−4 and 4.7 · 10^−4
pfu [11]: 9.4 · 10^5 pfu and 7.8 · 10^5 pfu
pfu/INPUT (fraction of input) [11]: 2.8 · 10^−4 and 4.3 · 10^−4
pfu/INPUT (fraction of input) (extended protocol, pH 6.0 fraction): 4.1 · 10^−4 and 3.6 · 10^−4
pfu [12]: 6.2 · 10^5 pfu and 5.2 · 10^5 pfu
pfu/INPUT (fraction of input) [12]: 1.8 · 10^−4 and 2.9 · 10^−4

ITI-D1E7: ITI-D1 with EpiNE-7 sequence at positions 15-20, SEQ ID NO 021 (KEDSCQLGYSAGPCVAMFPRYFYNGTSMACETFQYGGCMGNGNNFVTEKDCLQTCRGA; ITI-D1E7)
estimated affinity of free protein for hNE (estimated from pH elution profile of display phage): in the nM range

BITI-E7-1222: BITI-E7 with the alteration A11T; SEQ ID NO 143 (RPDFCQLGYSTGPCVAMFPRYFYNGTSMACETFQYGGCMGNGNNFVTEKDCLQTCRGA; BITI-E7-1222)
Fraction of Input recovered at pH7.0 [2]: 0.72
Fraction of Input recovered at pH2.0 [3]: 0.64 ×10^−4
Fraction of Input recovered at pH3.5 [4]: 4.0 ×10^−4
Recovery Total (EE): 5.4 ×10^−4

MUTT26A: BITI-E7-141 with T26A; SEQ ID NO 018 (RPDFCQLGYSAGPCVAMFPRYFYNGASMACQTFVYGGCMGNGNNFVTEKDCLQTCRGA; MUTT26A)
Fraction of Input recovered at pH7.0 [2]: 2.5
Fraction of Input recovered at pH2.0 [3]: 3.3 ×10^−4
Fraction of Input recovered at pH3.5 [4]: 19.0 ×10^−4
Recovery Total (EE): 25.0 ×10^−4
Fraction of Input bound (range of the affinity class): >0.1%
pH Elution Maximum (range of the affinity class): ≦4.0 pH
effect of change on binding of display phage to hNE-beads: little effect

MUTQE: BITI-E7-141 with Q31E; SEQ ID NO 019 (RPDFCQLGYSAGPCVAMFPRYFYNGTSMACETFVYGGCMGNGNNFVTEKDCLQTCRGA; MUTQE)
Fraction of Input recovered at pH2.0 [1]: 5.3 ×10^−4
Fraction of Input recovered at pH3.5 [1]: 16. ×10^−4
Fraction of Input recovered at pH7.0 [1]: 1.2
Recovery Total (AE): 22.0 ×10^−4
Fraction of Input bound (range of the affinity class): >0.1%
pH Elution Maximum (range of the affinity class): ≦4.0 pH
effect of change on binding of display phage to hNE-beads: little effect

MUT1619: BITI-E7-141 with ITI-D1 residues restored at 16 and 19; SEQ ID NO 020 (RPDFCQLGYSAGPCVGMFSRYFYNGTSMACQTFVYGGCMGNGNNFVTEKDCLQTCRGA; MUT1619)
Fraction of Input recovered at pH7.0 [2]: 0.82
Fraction of Input recovered at pH2.0 [3]: 0.84 ×10^−4
Fraction of Input recovered at pH3.5 [4]: 9.9 ×10^−4
Recovery Total (EE): 12.0 ×10^−4
Fraction of Input bound (range of the affinity class): >0.1%
pH Elution Maximum (range of the affinity class): ≦4.0 pH
